Assay results from patent US20100048462A1, “TRUNCATED PTH PEPTIDES WITH A CYCLIC CONFORMATION” (Zealand Pharma A/S, priority 2006, published 2010).
Read-outs that look alike come from different tables or passages of the source. Bridge positions count the residues as written; N and C are the ends. Square brackets hold non-standard residues; d marks the D form. hArg = N=C(N)NCCCC[C@H](N)C(=O)O; Ac5c = NC1(C(=O)O)CCCC1; Dap = NC[C@H](N)C(=O)O; Aib = CC(C)(N)C(=O)O

Assays:
Assay in all cases: cell-based or functional assay
[1] = biological target: PTH receptor 1 on MC3T3-E1 cells (murine) (UniProt P41593)
Saos-2 PTH1R = Saos-2 PTH1R (UniProt Q03431)
CYP2D6 = CYP2D6 (Homo sapiens, UniProt P10635)
CYP2D6, sequence (P10635 whole entry): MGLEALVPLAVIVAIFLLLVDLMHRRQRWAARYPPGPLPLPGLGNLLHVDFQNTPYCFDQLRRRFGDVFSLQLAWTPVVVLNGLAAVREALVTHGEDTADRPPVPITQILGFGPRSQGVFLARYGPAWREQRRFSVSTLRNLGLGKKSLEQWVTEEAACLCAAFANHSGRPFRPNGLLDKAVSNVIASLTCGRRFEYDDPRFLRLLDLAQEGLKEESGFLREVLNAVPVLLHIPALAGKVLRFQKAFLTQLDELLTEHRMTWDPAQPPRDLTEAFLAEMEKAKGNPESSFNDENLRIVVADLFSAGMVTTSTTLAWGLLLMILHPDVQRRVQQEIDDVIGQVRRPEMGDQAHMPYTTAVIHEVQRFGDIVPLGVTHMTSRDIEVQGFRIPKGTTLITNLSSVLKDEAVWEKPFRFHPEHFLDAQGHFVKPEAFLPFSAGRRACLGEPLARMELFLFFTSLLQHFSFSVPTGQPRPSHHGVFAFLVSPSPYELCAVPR

Saos-2 PTH1R, sequence (Q03431 27-593 limits assumed): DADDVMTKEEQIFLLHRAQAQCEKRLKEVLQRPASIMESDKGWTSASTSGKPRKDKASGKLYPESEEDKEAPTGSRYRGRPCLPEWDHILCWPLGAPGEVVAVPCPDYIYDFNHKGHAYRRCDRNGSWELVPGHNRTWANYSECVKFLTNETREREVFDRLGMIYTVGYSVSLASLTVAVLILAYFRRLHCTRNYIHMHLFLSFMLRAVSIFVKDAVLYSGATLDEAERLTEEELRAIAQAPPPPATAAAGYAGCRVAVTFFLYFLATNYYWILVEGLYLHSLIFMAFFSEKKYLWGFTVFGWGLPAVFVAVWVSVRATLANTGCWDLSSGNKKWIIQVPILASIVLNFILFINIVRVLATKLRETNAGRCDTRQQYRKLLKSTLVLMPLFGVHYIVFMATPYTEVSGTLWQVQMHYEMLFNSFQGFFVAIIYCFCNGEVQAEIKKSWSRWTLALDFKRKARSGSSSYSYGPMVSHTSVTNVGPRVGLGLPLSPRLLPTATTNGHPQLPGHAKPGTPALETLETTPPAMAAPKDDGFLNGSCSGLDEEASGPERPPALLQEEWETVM
PTH receptor 1 on MC3T3-E1 cells (murine), sequence (P41593 27-591): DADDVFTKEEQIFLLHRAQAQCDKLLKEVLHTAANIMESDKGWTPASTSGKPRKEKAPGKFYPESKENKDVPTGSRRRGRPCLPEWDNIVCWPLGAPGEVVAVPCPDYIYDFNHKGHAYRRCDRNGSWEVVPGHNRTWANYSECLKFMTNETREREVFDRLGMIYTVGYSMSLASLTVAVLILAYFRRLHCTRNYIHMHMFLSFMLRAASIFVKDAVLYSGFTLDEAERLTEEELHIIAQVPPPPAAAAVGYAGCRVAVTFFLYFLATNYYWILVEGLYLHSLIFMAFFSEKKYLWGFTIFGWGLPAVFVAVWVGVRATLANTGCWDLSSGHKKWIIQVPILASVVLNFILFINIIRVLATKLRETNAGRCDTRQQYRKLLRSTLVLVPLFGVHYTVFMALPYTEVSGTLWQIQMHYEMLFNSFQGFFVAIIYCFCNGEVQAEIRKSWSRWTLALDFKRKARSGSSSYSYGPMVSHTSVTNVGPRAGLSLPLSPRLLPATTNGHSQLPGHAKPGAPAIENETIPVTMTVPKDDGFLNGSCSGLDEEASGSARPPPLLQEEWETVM

PTH(1-34) (peptide)
Emax, cAMP efficacy assay in MC3T3-E1 cells [1]: 4.4 pmol/well

(H-Ac5c-Val-Aib-Glu-Ile-Gln-Leu-Met-His-Gln-Har-Ala-Lys( )-Trp-Leu-Asp( )-NH2)2 (peptide)
Emax, cAMP efficacy assay in Saos-2 cells (33T, trifluoroacetate salt) (relative to control (SEQ ID NO: 32)) (Saos-2 PTH1R): 1.1 | pEC50, cAMP efficacy assay in Saos-2 cells (33T, trifluoroacetate salt) (Saos-2 PTH1R): 7.88 -log(M) | EC50, cAMP in an osteoblast-like cell line (MC3T3-E1) [1]: 1 nM | Emax, cAMP efficacy assay in MC3T3-E1 cells [1]: 5 pmol/well | agonist potency relative to SEQ ID NO: 30, cAMP in MC3T3-E1 cells (fold stronger) [1]: 8 | pEC50, cAMP efficacy assay in MC3T3-E1 cells [1]: 8.9 -log(M)

H-Ac5c-Val-Aib-Glu-Ile-Gln-Leu-Met-His-Gln-Har-Ala-Lys( )-Trp-Leu-Asp( )-NH2 (peptide)
CYP2D6 activity (% of vehicle), dextrorphan formation rate in human liver microsomes, 10 µM peptide (CYP2D6): 83 % of vehicle | Emax, cAMP efficacy assay in Saos-2 cells (30T, trifluoroacetate salt) (relative to control (SEQ ID NO: 32)) (Saos-2 PTH1R): 1.04 | pEC50, cAMP efficacy assay in Saos-2 cells (30T, trifluoroacetate salt) (Saos-2 PTH1R): 7.09 -log(M) | Emax, cAMP efficacy assay in MC3T3-E1 cells [1]: 5 pmol/well | pEC50, cAMP efficacy assay in MC3T3-E1 cells [1]: 8 -log(M)

B1: H-Ac5c-Val-Aib-Glu-Ile-Gln-Leu-Leu-His-Gln-Har-Ala-Dpr( )-Trp-Leu-Asn-Asp( )-NH2 (peptide)
chain: H-[Ac5c]V[Aib]EIQLLHQ[hArg]A[Dap]WLND-NH2
modifications: lactam 13-17
SMILES: CC[C@H](C)[C@H](NC(=O)[C@H](CCC(=O)O)NC(=O)C(C)(C)NC(=O)[C@@H](NC(=O)C1(N)CCCC1)C(C)C)C(=O)N[C@@H](CCC(N)=O)C(=O)N[C@@H](CC(C)C)C(=O)N[C@@H](CC(C)C)C(=O)N[C@@H](Cc1c[nH]cn1)C(=O)N[C@@H](CCC(N)=O)C(=O)N[C@@H](CCCCNC(=N)N)C(=O)N[C@@H](C)C(=O)N[C@H]1CNC(=O)C[C@@H](C(N)=O)NC(=O)[C@H](CC(N)=O)NC(=O)[C@H](CC(C)C)NC(=O)[C@H](Cc2c[nH]c3ccccc23)NC1=O
CYP2D6 activity (% of vehicle), dextrorphan formation rate in human liver microsomes, 10 µM peptide (CYP2D6): 101 % of vehicle | Emax, cAMP efficacy assay in Saos-2 cells (17T, trifluoroacetate salt) (relative to control (SEQ ID NO: 32)) (Saos-2 PTH1R): 1.25 | pEC50, cAMP efficacy assay in Saos-2 cells (17T, trifluoroacetate salt) (Saos-2 PTH1R): 6.11 -log(M)

B2: H-Ac5c-Val-Aib-Glu-Ile-Gln-Leu-Met-His-Gln-Har-Ala-Lys( )-Trp-Leu-Asn-Glu( )-NH2 (peptide)
chain: H-[Ac5c]V[Aib]EIQLMHQ[hArg]AKWLNE-NH2
modifications: lactam 13-17
SMILES: CC[C@H](C)[C@H](NC(=O)[C@H](CCC(=O)O)NC(=O)C(C)(C)NC(=O)[C@@H](NC(=O)C1(N)CCCC1)C(C)C)C(=O)N[C@@H](CCC(N)=O)C(=O)N[C@@H](CC(C)C)C(=O)N[C@@H](CCSC)C(=O)N[C@@H](Cc1c[nH]cn1)C(=O)N[C@@H](CCC(N)=O)C(=O)N[C@@H](CCCCNC(=N)N)C(=O)N[C@@H](C)C(=O)N[C@H]1CCCCNC(=O)CC[C@@H](C(N)=O)NC(=O)[C@H](CC(N)=O)NC(=O)[C@H](CC(C)C)NC(=O)[C@H](Cc2c[nH]c3ccccc23)NC1=O
CYP2D6 activity (% of vehicle), dextrorphan formation rate in human liver microsomes, 10 µM peptide (CYP2D6): 85 % of vehicle | Emax, cAMP efficacy assay in Saos-2 cells (9T, trifluoroacetate salt) (relative to control (SEQ ID NO: 32)) (Saos-2 PTH1R): 1.03 | pEC50, cAMP efficacy assay in Saos-2 cells (9T, trifluoroacetate salt) (Saos-2 PTH1R): 7.85 -log(M)

B3: H-Ac5c-Val-Aib-Glu-Ile-Gln-Leu-Met-His-Asn-Leu-Gly-Lys-His-Leu-Asn-Asp-NH2 (peptide)
chain: H-[Ac5c]V[Aib]EIQLMHNLGKHLND-NH2
SMILES: CC[C@H](C)[C@H](NC(=O)[C@H](CCC(=O)O)NC(=O)C(C)(C)NC(=O)[C@@H](NC(=O)C1(N)CCCC1)C(C)C)C(=O)N[C@@H](CCC(N)=O)C(=O)N[C@@H](CC(C)C)C(=O)N[C@@H](CCSC)C(=O)N[C@@H](Cc1c[nH]cn1)C(=O)N[C@@H](CC(N)=O)C(=O)N[C@@H](CC(C)C)C(=O)NCC(=O)N[C@@H](CCCCN)C(=O)N[C@@H](Cc1c[nH]cn1)C(=O)N[C@@H](CC(C)C)C(=O)N[C@@H](CC(N)=O)C(=O)N[C@@H](CC(=O)O)C(N)=O
CYP2D6 activity (% of vehicle), dextrorphan formation rate in human liver microsomes, 10 µM peptide (CYP2D6): 57 % of vehicle | CYP2D6 activity (% of vehicle), dextrorphan formation rate in human liver microsomes, 10 µM peptide (CYP2D6; record 2): 107 % of vehicle | Emax, cAMP efficacy assay in Saos-2 cells (34T, trifluoroacetate salt) (relative to control (SEQ ID NO: 32)) (Saos-2 PTH1R): 1.12 | pEC50, cAMP efficacy assay in Saos-2 cells (34T, trifluoroacetate salt) (Saos-2 PTH1R): 6.67 -log(M)
